Values quoted from earlier work in PMC5473928.
Where “and” joins values, the source holds several entries; their conditions need not be identical. Equal entries are not always repeated.

Molecular target: SOS allosteric site (Homo sapiens) (UniProt Q07889)

Question: With KRas (from UniProt P01116) as the substance, how does the Kd read?
Answer: The Kd was 3.6 µM and 10 µM.
